Measured values as given in patent US20180326082A1 (Sanofi, published 2018).
Where two headings read alike, the source gives them in different places.

How the values were obtained:
[1] = target: T1, porcine TSH receptor (porcine, UniProt Q8SPP9 22-764, limits assumed); experiment: competition ELISA; displacement of biotinylated rhTSH from immobilized porcine TSH receptor
T1 construct: Bought, coated on kit plates; the construct is not described; also called immobilized porcine TSH receptor
Procedure: (§1) Purified PEGylated conjugates were analyzed by in vitro porcine TSH receptor binding assay using the TSH Receptor Autoantibody 2nd Generation ELISA kit from RSR Limited (Kronus, Star, Id.). Instead of using the biotinylated human monoclonal autoantibody to the TSH receptor provided by the kit, we biotinylated Thyrogen® (rhTSH) to use for competitive inhibition of binding to TSH receptor. Binding of biotinylated rhTSH to immobilized porcine TSH receptor was inhibited by either rhTSH control or PEGylated rhTSH conjugates and IC₅₀ values were measured.
(§2) Thyrogen® was biotinylated with 1.7 to 1.8 biotins per protein using the ChromaLink™ Biotin Labeling Reagent according to the manufacturer's protocol (QED Bioscience Inc., San Diego, Calif.) and buffer exchanged into 50 mM sodium phosphate, 150 mM sodium chloride pH 7.0 with a Zeba™ Desalt Spin Column (Thermo Scientific, Rockford, Ill.). In vitro measurement of receptor binding was performed by competition of biotinylated Thyrogen® and PEG-rhTSH conjugate for binding to porcine TSH receptor immobilized onto 96-well plates supplied with the TSH Receptor Autoantibody 2nd Generation ELISA kit from RSR Limited (Kronus, Star, Id.). PEG-rhTSH conjugates were serially diluted 1:5 from 16 μM to 41 pM in assay buffer (100 mM HEPES pH 7.5, 20 mM EDTA, 1% BSA, 0.5% Triton X-100) and mixed 1:1 with biotinylated Thyrogen® diluted 1000-fold in assay buffer. The mixture was added to each receptor-coated well and incubated at 25° C. for 25 minutes. Unbound rhTSH was washed away and streptavidin peroxidase was added at 25° C. for 20 minutes according to the RSR Limited ELISA protocol to determine the amount of biotinylated Thyrogen® bound to the plate. The plate was then washed three times to remove excess unbound streptavidin peroxidase and then tetramethylbenzidine (TMB) was added to each well and incubated in the dark at 25° C. for 30 minutes. The reaction which was quenched with 0.5M sulfuric acid stop buffer and the absorbance of each well was read at 450 nm using a SpectraMax® 340pc plate reader (Molecular Devices, Sunnyvale, Calif.). The data was fit using a sigmoidal dose response equation with GraphPad Prism software to generate IC₅₀ values.

[2] = target: T1, porcine TSH receptor; experiment: as above; remark: listed apart in the source
Procedure: as §1, §2

[3] = target: T1, porcine TSH receptor; experiment: in vitro TSH receptor binding assay (competition ELISA)

T1 sequence (Q8SPP9 22-764 limits assumed): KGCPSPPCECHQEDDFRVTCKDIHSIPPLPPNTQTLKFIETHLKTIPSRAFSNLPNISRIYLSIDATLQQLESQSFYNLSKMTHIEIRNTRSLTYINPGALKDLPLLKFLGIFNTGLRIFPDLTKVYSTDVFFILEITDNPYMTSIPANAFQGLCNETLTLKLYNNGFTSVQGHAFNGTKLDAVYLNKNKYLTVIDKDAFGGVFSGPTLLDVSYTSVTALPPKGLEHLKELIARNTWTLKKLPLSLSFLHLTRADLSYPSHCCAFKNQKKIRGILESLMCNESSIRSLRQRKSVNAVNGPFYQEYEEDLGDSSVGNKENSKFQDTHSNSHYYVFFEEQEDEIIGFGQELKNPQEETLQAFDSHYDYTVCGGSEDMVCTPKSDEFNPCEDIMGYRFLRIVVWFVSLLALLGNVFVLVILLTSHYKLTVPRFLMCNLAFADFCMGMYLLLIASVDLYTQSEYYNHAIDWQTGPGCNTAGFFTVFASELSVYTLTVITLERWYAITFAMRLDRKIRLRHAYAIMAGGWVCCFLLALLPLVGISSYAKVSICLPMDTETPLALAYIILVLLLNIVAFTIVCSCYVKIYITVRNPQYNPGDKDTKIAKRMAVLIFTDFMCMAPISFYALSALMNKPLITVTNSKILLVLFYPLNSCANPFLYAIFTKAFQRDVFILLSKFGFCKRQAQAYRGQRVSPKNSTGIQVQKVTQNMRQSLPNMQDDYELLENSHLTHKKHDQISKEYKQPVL

Binder	IC50 [1] [µM]	fold change (IC50 against rhTSH) [1] [fold]	IC50 [2] [µM]	fold change (IC50 against rhTSH) [2] [fold]	fold decrease of in vitro TSH receptor binding affinity, compared to the rhTSH control [3] [fold]
40 kD monoSAM PEGylated rhTSH (ligand, see alpha chain; glycan at ASN23 is a possible PEG site; one 40 kD aminoxy PEG per protein on periodate-oxidized sialic acid of an N-linked glycan (ASN52 or ASN78 of alpha, or ASN23 of beta); 58% of the conjugate modified on the alpha subunit, Sialic acid-mediated (SAM) monoPEGylation of rhTSH; also called 40 kD SAM; mono-40 kDa aminoxy PEG-TSH (SAM PEGylation)) chain 1: not shown chain 2: FCIPTEYTMHIERRECAYCLTINTTICAGYCMTRDINGKLFLPKYALSQDVCTYRDFIYRTVEIPGCPLHVAPYFSYPVALSCKCGKCNTDYSDCIHEAIKTNYCTKPQKSY	0.196	5.3	–	–	–
20 kD GAM+ PEGylated rhTSH (ligand, see alpha chain; glycan at ASN23 is a possible PEG site; sialic acid removed with neuraminidase; one 20 kD aminoxy PEG per protein on galactose oxidase-oxidized galactose of an N-linked glycan (ASN52 or ASN78 of alpha, or ASN23 of beta)) chain 1: not shown chain 2: FCIPTEYTMHIERRECAYCLTINTTICAGYCMTRDINGKLFLPKYALSQDVCTYRDFIYRTVEIPGCPLHVAPYFSYPVALSCKCGKCNTDYSDCIHEAIKTNYCTKPQKSY	0.0817	2.2	–	–	–
40 kD GAM+ PEGylated rhTSH (ligand, see alpha chain; glycan at ASN23 is a possible PEG site; sialic acid removed with neuraminidase; one 40 kD aminoxy PEG per protein on galactose oxidase-oxidized galactose of an N-linked glycan (ASN52 or ASN78 of alpha, or ASN23 of beta); 66% of the conjugate modified on the alpha subunit) chain 1: not shown chain 2: FCIPTEYTMHIERRECAYCLTINTTICAGYCMTRDINGKLFLPKYALSQDVCTYRDFIYRTVEIPGCPLHVAPYFSYPVALSCKCGKCNTDYSDCIHEAIKTNYCTKPQKSY	0.133	3.6	–	–	–
20 kD GAM- PEGylated rhTSH (ligand, see alpha chain; glycan at ASN23 is a possible PEG site; one 20 kD aminoxy PEG per protein on galactose oxidase-oxidized galactose of an N-linked glycan (ASN52 or ASN78 of alpha, or ASN23 of beta)) chain 1: not shown chain 2: FCIPTEYTMHIERRECAYCLTINTTICAGYCMTRDINGKLFLPKYALSQDVCTYRDFIYRTVEIPGCPLHVAPYFSYPVALSCKCGKCNTDYSDCIHEAIKTNYCTKPQKSY	0.101	2.7	–	–	–
40 kD GAM- PEGylated rhTSH (ligand, see alpha chain; glycan at ASN23 is a possible PEG site; one 40 kD aminoxy PEG per protein on galactose oxidase-oxidized galactose of an N-linked glycan (ASN52 or ASN78 of alpha, or ASN23 of beta); 77% of the conjugate modified on the alpha subunit) chain 1: not shown chain 2: FCIPTEYTMHIERRECAYCLTINTTICAGYCMTRDINGKLFLPKYALSQDVCTYRDFIYRTVEIPGCPLHVAPYFSYPVALSCKCGKCNTDYSDCIHEAIKTNYCTKPQKSY	0.294	8	–	–	–
recombinant human TSH (rhTSH), THYROGEN Thyroid Stimulating Hormone (ligand, N-linked carbohydrate chain at ASN23; N-linked carbohydrate chains at ASN52 and ASN78, Heterodimer of alpha and beta subunit; also called TSH control; control TSH, starting material) chain 1: not shown chain 2: FCIPTEYTMHIERRECAYCLTINTTICAGYCMTRDINGKLFLPKYALSQDVCTYRDFIYRTVEIPGCPLHVAPYFSYPVALSCKCGKCNTDYSDCIHEAIKTNYCTKPQKSY	0.0367	1	0.028	1	–
40 kD N-terminal mono-PEGylated rhTSH (ligand, see alpha chain; one 40 kD aldehyde PEG per protein at an N-terminus (reductive amination); which subunit is not stated) chain 1: not shown chain 2: FCIPTEYTMHIERRECAYCLTINTTICAGYCMTRDINGKLFLPKYALSQDVCTYRDFIYRTVEIPGCPLHVAPYFSYPVALSCKCGKCNTDYSDCIHEAIKTNYCTKPQKSY	0.397	10.8	0.319	11.4	11.1
40 kD Lysine mono-PEGylated rhTSH (ligand, see alpha chain; one 40 kDa NHS PEG per protein on a lysine; which lysine and subunit are not stated, SEC fraction of the mono-PEGylated species; also called mono-40 kDa NHS PEG-TSH (Lysine PEGylation)) chain 1: not shown chain 2: FCIPTEYTMHIERRECAYCLTINTTICAGYCMTRDINGKLFLPKYALSQDVCTYRDFIYRTVEIPGCPLHVAPYFSYPVALSCKCGKCNTDYSDCIHEAIKTNYCTKPQKSY	0.876	31.2	0.876	31.2	–
40 kD 2-arm PEG G22C rhTSH (ligand, 40 kD 2-arm cysteine-reactive PEG on Cys22) chain 1: not shown chain 2: FCIPTEYTMHIERRECAYCLTINTTICAGYCMTRDINGKLFLPKYALSQDVCTYRDFIYRTVEIPGCPLHVAPYFSYPVALSCKCGKCNTDYSDCIHEAIKTNYCTKPQKSY	–	–	0.417	14.9	–
40 kD 4-arm PEG G22C rhTSH (ligand, 40 kD 4-arm cysteine-reactive PEG on Cys22) chain 1: not shown chain 2: FCIPTEYTMHIERRECAYCLTINTTICAGYCMTRDINGKLFLPKYALSQDVCTYRDFIYRTVEIPGCPLHVAPYFSYPVALSCKCGKCNTDYSDCIHEAIKTNYCTKPQKSY	–	–	0.743	26.5	–
40 kD linear PEG G22C rhTSH (ligand, 40 kD linear cysteine-reactive PEG on Cys22, also called 40 kD linear G22C; 40 kD G22C) chain 1: not shown chain 2: FCIPTEYTMHIERRECAYCLTINTTICAGYCMTRDINGKLFLPKYALSQDVCTYRDFIYRTVEIPGCPLHVAPYFSYPVALSCKCGKCNTDYSDCIHEAIKTNYCTKPQKSY	–	–	0.248	8.9	–
50 kD 3-arm PEG G22C rhTSH (ligand, 50 kD 3-arm cysteine-reactive PEG on Cys22) chain 1: not shown chain 2: FCIPTEYTMHIERRECAYCLTINTTICAGYCMTRDINGKLFLPKYALSQDVCTYRDFIYRTVEIPGCPLHVAPYFSYPVALSCKCGKCNTDYSDCIHEAIKTNYCTKPQKSY	–	–	0.281	10	–
60 kD 2-arm PEG G22C rhTSH (ligand, 60 kD 2-arm cysteine-reactive PEG on Cys22) chain 1: not shown chain 2: FCIPTEYTMHIERRECAYCLTINTTICAGYCMTRDINGKLFLPKYALSQDVCTYRDFIYRTVEIPGCPLHVAPYFSYPVALSCKCGKCNTDYSDCIHEAIKTNYCTKPQKSY	–	–	11.3	404	–
60 kD 4-arm PEG G22C rhTSH (ligand, 60 kD 4-arm cysteine-reactive PEG on Cys22) chain 1: not shown chain 2: FCIPTEYTMHIERRECAYCLTINTTICAGYCMTRDINGKLFLPKYALSQDVCTYRDFIYRTVEIPGCPLHVAPYFSYPVALSCKCGKCNTDYSDCIHEAIKTNYCTKPQKSY	–	–	4020	144000	–
G22C rhTSH (ligand, introduced cysteine found capped after expression and purification, Cysteine mutant without PEG, produced from CHO cells; also called TSH G22C(alpha); G22C(a)) chain 1: not shown chain 2: FCIPTEYTMHIERRECAYCLTINTTICAGYCMTRDINGKLFLPKYALSQDVCTYRDFIYRTVEIPGCPLHVAPYFSYPVALSCKCGKCNTDYSDCIHEAIKTNYCTKPQKSY	–	–	0.0416	1.5	–
10 kD multiSAM PEGylated rhTSH (ligand, see alpha chain; glycan at ASN23 is a possible PEG site; more than one 10 kD aminoxy PEG per protein on periodate-oxidized sialic acid of the N-linked glycans (ASN52, ASN78 of alpha; ASN23 of beta); split between sites not stated) chain 1: not shown chain 2: FCIPTEYTMHIERRECAYCLTINTTICAGYCMTRDINGKLFLPKYALSQDVCTYRDFIYRTVEIPGCPLHVAPYFSYPVALSCKCGKCNTDYSDCIHEAIKTNYCTKPQKSY	0.138	3.8	–	–	–
10 kD monoSAM PEGylated rhTSH (ligand, see alpha chain; glycan at ASN23 is a possible PEG site; one 10 kD aminoxy PEG per protein on periodate-oxidized sialic acid of an N-linked glycan (ASN52 or ASN78 of alpha, or ASN23 of beta), Sialic acid-mediated (SAM) monoPEGylation of rhTSH; also called 10 kD SAM) chain 1: not shown chain 2: FCIPTEYTMHIERRECAYCLTINTTICAGYCMTRDINGKLFLPKYALSQDVCTYRDFIYRTVEIPGCPLHVAPYFSYPVALSCKCGKCNTDYSDCIHEAIKTNYCTKPQKSY	0.0781	2.1	–	–	–
20 kD monoSAM PEGylated rhTSH (ligand, see alpha chain; glycan at ASN23 is a possible PEG site; one 20 kD aminoxy PEG per protein on periodate-oxidized sialic acid of an N-linked glycan (ASN52 or ASN78 of alpha, or ASN23 of beta), Sialic acid-mediated (SAM) monoPEGylation of rhTSH; also called 20 kD SAM) chain 1: not shown chain 2: FCIPTEYTMHIERRECAYCLTINTTICAGYCMTRDINGKLFLPKYALSQDVCTYRDFIYRTVEIPGCPLHVAPYFSYPVALSCKCGKCNTDYSDCIHEAIKTNYCTKPQKSY	0.0923	2.5	–	–	–
